Measured values as given in patent publication US9345743B2, “Agent for promoting proliferation of bifidobacteria” (MORINAGA MILK INDUSTRY CO., LTD., priority 2011, dated 2016).

Key:
Assay in all cases: Bifidobacterium proliferation promoting activity, turbidity at 630 nm after 16 h anaerobic culture in MRS medium
Format in all cases: cell-based
Settings in all cases: 37° C.
[1] = system: Bifidobacterium bifidum ATCC 29521
Method: (§1) A 9.375 μM aqueous solution of each peptide was adjusted to pH 6.5 with an HCl aqueous solution, and subjected to filtration sterilization using a 0.22-μm membrane. Each peptide solution was diluted with dilution water to obtain 9.375 μM, 3.125 μM, 0.9375 μM, and 0.3125 μM sample solutions. As the dilution water, purified water adjusted to pH 6.5 with an HCl solution and sterilized at 115° C. for 15 minutes was used.
(§2) Bifidobacterium proliferation promoting activities of the aforementioned peptides were evaluated as follows.
(§3) The bifidobacteria used for the experiment were as follows. These strains can be obtained from ATCC (American Type Culture Collection, http://www.atcc.org/). • Bifidobacterium infantis ATCC 15697^T • Bifidobacterium breve ATCC 15700^T • Bifidobacterium bifidum ATCC 29521^T
(§4) A cell suspension of each strain (100 μL) cryopreserved in a 10% skim milk medium was added to the MRS liquid medium (3 mL), and culture was performed at 37° C. for 16 hours under an anaerobic condition. The culture medium (100 μL) was added to the MRS liquid medium (3 mL). The MRS liquid medium was prepared by dissolving Difco Lactobacilli MRS Broth (5.5 g, BD, “Difco” is a registered trademark of Difco Laboratories, Incorporated), and L-cysteine monohydrochloride monohydrate (50 mg, Wako Pure Chemical Industries, Co., Ltd.) in pure water so as to obtain a final volume of 100 mL, adjusting the solution to pH 6.5 with an HCl aqueous solution, and sterilizing the solution at 115° C. for 15 minutes. Further, a concentrated medium containing the components at twofold concentrations was prepared in the same manner as described above, except that Difco Lactobacilli MRS Broth and L-cysteine monohydrochloride monohydrate were used in amounts of 11 g and 100 mg, respectively.
(§5) The aforementioned culture medium was diluted with the MRS liquid medium so as to obtain a turbidity of 0.8 measured at a wavelength of 630 nm. This diluted culture medium was further diluted 100 times with the MRS liquid medium. The obtained diluted culture medium is referred to as 1% diluted culture medium.
(§6) Anaerobic culture was performed at 37° C. for 16 hours in a mixture of 100 μL of the twofold concentrated culture medium, 80 μL of a sample solution or the dilution water, and 20 μL of the 1% diluted culture medium (inoculation volume was 0.1%) or the MRS liquid medium (inoculation volume was 0%) on a 96-well plate (FALCON 353072). The final concentration of the peptide in the mixture was 3.75 μM, 1.25 μM, 0.375 μM, 0.125 μM, or 0 μM.
(§7) After the culture, turbidity of each culture medium was measured at a wavelength of 630 nm, and the proliferation promoting ratio (%) was calculated in accordance with the following equation. Proliferation promoting ratio (%)=(ODS1−ODS0)/(ODC1−ODC0)×100−100
(§8) ODS1: Turbidity observed after culture performed at a sample concentration of 3.75 to 0.125 μM and inoculation volume of 0.1% for 16 hours
(§9) ODS0: Turbidity observed after culture performed at a sample concentration of 3.75 to 0.125 μM and inoculation volume of 0% for 16 hours
(§10) ODC0: Turbidity observed after culture performed at a sample concentration of 0 μM and inoculation volume of 0% for 16 hours
(§11) Bifidobacterium proliferation promoting activities of the aforementioned peptides were evaluated in the same manner as that of Example 1.

[2] = system: Bifidobacterium infantis ATCC 15697
Method: as §1, §2, §3, §4, §5, §6, §7, §8, §9, §10, §11

[3] = system: Bifidobacterium breve ATCC 15700
Method: as §1, §2, §3, §4, §5, §6, §7, §8, §9, §10, §11

B1: bovine lactoferrin (protein, UniProt P24627 20-708, looked up)
Lactotransferrin: APRKNVRWCTISQPEWFKCRRWQWRMKKLGAPSITCVRRAFALECIRAIAEKKADAVTLDGGMVFEAGRDPYKLRPVAAEIYGTKESPQTHYYAVAVVKKGSNFQLDQLQGRKSCHTGLGRSAGWIIPMGILRPYLSWTESLEPLQGAVAKFFSASCVPCIDRQAYPNLCQLCKGEGENQCACSSREPYFGYSGAFKCLQDGAGDVAFVKETTVFENLPEKADRDQYELLCLNNSRAPVDAFKECHLAQVPSHAVVARSVDGKEDLIWKLLSKAQEKFGKNKSRSFQLFGSPPGQRDLLFKDSALGFLRIPSKVDSALYLGSRYLTTLKNLRETAEEVKARYTRVVWCAVGPEEQKKCQQWSQQSGQNVTCATASTTDDCIVLVLKGEADALNLDGGYIYTAGKCGLVPVLAENRKSSKHSSLDCVLRPTEGYLAVAVVKKANEGLTWNSLKDKKSCHTAVDRTAGWNIPMGLIVNQTGSCAFDEFFSQSCAPGADPKSRLCALCAGDDQGLDKCVPNSKEKYYGYTGAFRCLAEDVGDVAFVKNDTVWENTNGESTADWAKNLNREDFRLLCLDGTRKPVTEAQSCHLAVAPNHAVVSRSDRAAHVKQVLLHQQALFGKNGKNCPDKFCLFKSETKNLLFNDNTECLAKLGGRPTYEEYLGTEYVTAIANLKKCSTSPLLEACAFLTR
Q: Which results are given for B1?
A: Proliferation promoting ratio (%) ([1]; B. bifidum ATCC 29521, 0.125 μM): 8%; Proliferation promoting ratio (%) ([1]; B. bifidum ATCC 29521, 0.375 μM): 8%; Proliferation promoting ratio (%) ([1]; B. bifidum ATCC 29521, 1.25 μM): 10%; Proliferation promoting ratio (%) ([1]; B. bifidum ATCC 29521, 3.75 μM): 12%; Proliferation promoting ratio (%) ([2]; B. infantis ATCC 15697, 0.125 μM): 1%; Proliferation promoting ratio (%) ([2]; B. infantis ATCC 15697, 0.375 μM): 1%; Proliferation promoting ratio (%) ([2]; B. infantis ATCC 15697, 1.25 μM): 13%; Proliferation promoting ratio (%) ([2]; B. infantis ATCC 15697, 3.75 μM): 23%; Proliferation promoting ratio (%) ([3]; B. breve ATCC 15700, 0.125 μM): 2%; Proliferation promoting ratio (%) ([3]; B. breve ATCC 15700, 0.375 μM): 4%; Proliferation promoting ratio (%) ([3]; B. breve ATCC 15700, 1.25 μM): 8%; Proliferation promoting ratio (%) ([3]; B. breve ATCC 15700, 3.75 μM): 21%
